Residue numbers refer to the chain shown, from its start. Each block holds one binder with its values, some of them ahead of it.
How the values were obtained:
[1] = target: T1, membrane-bound B Lymphocyte Stimulator on U937 plasma membrane preparations (human, UniProt Q9Y275 1-285); assay: phage ELISA
T1 construct: Natural protein in plasma membrane fractions of the human cell line U937 coated on ELISA plates; also called U937 plasma membranes; U937 membranes

Bovine serum albumin = target: T2, Bovine serum albumin (bovine, UniProt P02769 25-607); assay: phage ELISA
T2 construct: also called BSA
T2 sequence (P02769 25-607 limits assumed): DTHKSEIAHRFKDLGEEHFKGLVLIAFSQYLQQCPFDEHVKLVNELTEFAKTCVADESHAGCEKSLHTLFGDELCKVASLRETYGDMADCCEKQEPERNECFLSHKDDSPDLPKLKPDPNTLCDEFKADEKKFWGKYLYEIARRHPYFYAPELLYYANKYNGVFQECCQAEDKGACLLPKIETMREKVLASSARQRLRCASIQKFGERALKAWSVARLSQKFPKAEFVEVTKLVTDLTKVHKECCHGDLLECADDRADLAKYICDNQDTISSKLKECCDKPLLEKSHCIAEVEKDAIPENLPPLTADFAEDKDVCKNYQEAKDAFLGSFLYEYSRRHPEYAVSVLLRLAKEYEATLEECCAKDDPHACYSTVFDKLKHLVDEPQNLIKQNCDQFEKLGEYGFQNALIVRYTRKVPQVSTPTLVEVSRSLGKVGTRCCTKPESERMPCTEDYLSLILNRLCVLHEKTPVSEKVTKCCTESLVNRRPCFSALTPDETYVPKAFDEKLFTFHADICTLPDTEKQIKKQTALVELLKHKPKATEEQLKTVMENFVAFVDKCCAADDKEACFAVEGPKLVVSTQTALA

TNF-alpha = target: T3, TNF-alpha (human, UniProt P01375 77-233); assay: phage ELISA
T3 construct: also called TNFα; TNF-α
T3 sequence (P01375 77-233 limits assumed): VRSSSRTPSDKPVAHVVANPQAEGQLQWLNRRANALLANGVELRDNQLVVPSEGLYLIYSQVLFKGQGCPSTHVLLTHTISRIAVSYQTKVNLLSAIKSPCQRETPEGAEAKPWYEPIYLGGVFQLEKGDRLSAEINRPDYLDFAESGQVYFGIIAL

[2] = target: T4, B Lymphocyte Stimulator, soluble form (human) (human, UniProt Q9Y275 134-285, biotinylated with NHS-biotin where used as biotinylated B Lymphocyte Stimulator); assay: phage ELISA
T4 construct: Coated on plastic, captured on streptavidin plates, amine-coupled to a CM5 chip or free in solution, depending on the assay; also called BLyS; immobilized B Lymphocyte Stimulator

TNF-beta = target: T5, TNF-beta (human, UniProt P01374 35-205); assay: phage ELISA
T5 construct: also called TNFβ; Tumour Necrosis Factor-beta
T5 sequence (looked up): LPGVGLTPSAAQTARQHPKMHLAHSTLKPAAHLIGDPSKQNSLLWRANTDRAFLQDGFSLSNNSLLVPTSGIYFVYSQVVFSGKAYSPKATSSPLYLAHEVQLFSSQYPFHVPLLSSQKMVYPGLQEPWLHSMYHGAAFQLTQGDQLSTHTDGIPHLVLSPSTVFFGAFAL

LIGHT = LIGHT (human, UniProt O43557 74-240, limits assumed); assay: phage ELISA
LIGHT, sequence (O43557 74-240 limits assumed): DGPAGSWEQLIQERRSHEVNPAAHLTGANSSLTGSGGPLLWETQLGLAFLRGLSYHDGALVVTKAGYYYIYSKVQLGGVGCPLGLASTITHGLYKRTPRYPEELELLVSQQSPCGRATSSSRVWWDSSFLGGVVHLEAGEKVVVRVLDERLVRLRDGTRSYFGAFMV

TRAIL = target: T6, TRAIL (human, UniProt P50591 114-281); assay: phage ELISA
T6 construct: also called TNF-related apoptosis inducing ligand
T6 sequence (P50591 114-281 limits assumed): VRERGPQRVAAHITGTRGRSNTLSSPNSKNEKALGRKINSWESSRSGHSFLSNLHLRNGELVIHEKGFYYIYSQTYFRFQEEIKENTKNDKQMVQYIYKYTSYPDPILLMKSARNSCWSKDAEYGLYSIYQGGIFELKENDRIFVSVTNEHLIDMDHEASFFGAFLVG

APRIL, soluble form = target: T7, APRIL, soluble form (Homo sapiens (Human), UniProt O75888 105-250); assay: phage display panning on soluble APRIL, rounds two and three
T7 sequence: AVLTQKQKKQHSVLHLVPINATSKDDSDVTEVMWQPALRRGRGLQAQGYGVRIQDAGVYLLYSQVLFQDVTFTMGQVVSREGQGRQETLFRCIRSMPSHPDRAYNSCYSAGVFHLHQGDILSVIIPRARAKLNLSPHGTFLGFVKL
Source text: (§1) In a specific embodiment, antibodies of the present invention cross react with APRIL (SEQ ID NO:3239; GenBank Accession No. AF046888; J. Exp. Med. 188(6):1185-1190; PCT International Publication WO97/33902). […] These scFvs were isolated by panning a phage scFv library comprising VH and VL domains obtained from human bone marrow B cells (BM library). Phage from the BM phage library were first selected for binding to soluble B Lymphocyte Stimulator (amino acids 134-285 of SEQ ID NO:3228). A second round of selection for binding to the soluble form of APRIL (amino acids 105-250 of SEQ ID NO:3239) was then performed on the B Lymphocyte Stimulator binding phage selected in round one. A third round of selection for binding to the soluble form of APRIL (amino acids 105-250 of SEQ ID NO:3239) was then performed on the phage selected in round two. A final (fourth) round of selection for binding to the soluble form of B Lymphocyte Stimulator (amino acids 134-285 of SEQ ID NO:3228) was then performed on the phage selected in round three. Phage clones that bound B Lymphocyte Stimulator in the fourth round of selection were eluted with either 0.1M triethylamine (TEA) or with a TACI-Fc fusion protein (e.g., the extracellular domain of TACI (amino acids 31 to 159 of Genbank Accession No. AAC51790) fused to Fc).

[3] = target: T4, B Lymphocyte Stimulator, soluble form …; assay: phage display panning on soluble BLyS
Source text: as §1

Fas ligand = target: T8, Fas ligand (human, UniProt P48023 134-281, limits assumed); assay: phage ELISA
T8 sequence (looked up): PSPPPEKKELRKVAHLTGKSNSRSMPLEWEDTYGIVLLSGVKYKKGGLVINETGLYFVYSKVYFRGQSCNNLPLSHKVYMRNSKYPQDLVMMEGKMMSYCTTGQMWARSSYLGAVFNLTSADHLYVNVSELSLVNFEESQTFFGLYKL

[4] = target: T4, B Lymphocyte Stimulator, soluble form …; assay: phage competition ELISA
[5] = target: T9, B Lymphocyte Stimulator, soluble form (human, UniProt Q9Y275 134-285); assay: BIAcore, IgG1 captured on low-density Protein A, BLyS flowed over; mean ± SD
T9 construct: also called BLyS; Neutrokine-alpha
Procedure: Briefly, antibodies were captured on low-density Protein A surfaces and B Lymphocyte Stimulator was passed over at various flow rates. The binding of B Lymphocyte Stimulator to immobilized antibody was detected by changes in […] that were proportional to the amount of bound B Lymphocyte Stimulator. Binding values were calculated using software provided by the manufacturer.

[6] = target: T10, HIS-tagged B Lymphocyte Stimulator (human, UniProt Q9Y275 71-285); assay: BIAcore, purified scFv over low density HIS-BLyS surface
T10 construct: Expressed in E. coli; also called HIS-B Lymphocyte Stimulator; histidine-tagged B Lymphocyte Stimulator; not shown: histidine tag from the pQE9 vector
Procedure: The chip containing the low density HIS-B Lymphocyte Stimulator surface was inserted into the BIAcore. […] The dilution series was then injected sequentially over the blank control (flow cell 1) and low density HIS-B Lymphocyte Stimulator surface (flow cell 2) using the following program: […]

B1: I006E07 (scFv)
scFv: QVQLQQSGAEEKKPGASVKVSCKASGYTFTSYAMHWVRQAPGQRLEWMGWINAGNGNTKYSQKFQGRVAITRDTSASTAYMELSSLRSEDTAVYYCARADYDILTGYSPLTYGMDVWGRGTLVTVSSGGGGSGGGGSGGGGSDIQMTQSPSTLSASIGDRVTITCRASEGIYHWLAWYQQKPGKAPKLLIYKASSLASGAPSRFSGSGSGTDFTLTISSLQPDDFATYYCQQYSNYPLTFGGGTKLEIKR
binding result [1]: binds
binding result (Bovine serum albumin): no binding
binding result (TNF-alpha): no binding
binding result [2]: binds

B2: I075A02 (scFv)
scFv: QVQLVQSGAEVKKPGSSVKVSCRASGGSFNHAISWVRQAPGRGLEWMGGILPMYGTANYAQKFQGRVTITADKLTNTVYMDLSRLRYEDTAVYYCARELGLSIVGATTGALDMWGRGTLVTVSSGGGGSGGGGSGGGGSAQSVVTQPPSASGTPGQRVTVSCSGGRSNIGSNTVSWYQQLPGTAPKLLIYSNDERPSGVPDRFSGSNSGTSASLAISGLQSEDEADYYCAAWDDSLNGVAFGGGTKLTVLG
binding result (Bovine serum albumin): no binding
binding result (TNF-beta): no binding
binding result (TNF-alpha): no binding
binding result (LIGHT): no binding
binding result [2]: binds
binding result (TRAIL): no binding

B4: I016F04 (scFv)
scFv: QVQLQQSGSELKKPGASVKVSCKVSGYSLTKMSMHWVRQSPGEGLEWVGGIDPETRQPVYAQKFQGRVTITKDTSASAAYMELSSLGSEDTALYYCARATYDPLTGYSFDGFDIWGQGTLVTVSSGGGGSGGGGSGGGGSQSVLTQPASVSGSPGQSITISCTGTSSDVGGYNYVSWYQQHPGKAPKLMIYEGSKRPSGVSNRFSGSKSGNTASLTISGLQAEDEADYYCSSYTTRSTRVFGGGTKLTVLG
binding result [1]: binds
binding result (Bovine serum albumin): no binding
binding result (TNF-alpha): no binding
binding result (TRAIL): no binding
binding result (Fas ligand): no binding
binding result [4]: binds

B5: I116A01 IgG1 (antibody, V domains shown)
VH: QVQLQQSGAEVKKPGSSVRVSCKASGGTFNNNAINWVRQAPGQGLEWMGGIIPMFGTAKYSQNFQGRVAITADESTGTASMELSSLRSEDTAVYYCARSRDLLLFPHHALSPWGRGTMVTVSS
VL: SSELTQDPAVSVALGQTVRVTCQGDSLRSYYASWYQQKPGQAPVLVIYGKNNRPSGIPDRFSGSSSGNTASLTITGAQAEDEADYYCSSRDSSGNHWVFGGGTELTVLG
Kd [5]: 0.267 nM
koff [5]: 0.000332 s⁻¹
kon [5]: 1.26e+06 M⁻¹ s⁻¹

B8: I079E02 (scFv)
scFv: QVQLVQSGAEVKKPGSSVKVSCKASGGTFSSYAISWVRQAPGQGLEWMGGIIPIFGTANYAQKFQGRVTITADKSTSTAYMELSSLRSDDTAVYYCARDSGSYYYDAFDIWGKGTMVTVSSGGGGSGGGGSGGGGSDIVMTQSPSTLSASVGDRVTITCRASQGISSWLAWYQQKPGKAPKLLIYAASSLQSGVPSRFSGSGSGTDFTLTISSLQPEDFATYYCQQANSFPLTFGGGTKVEIKR
Kd [6]: 10 nM

Now from value to binder:

binding result (APRIL, soluble form): binds
binding result [3]: binds
B3: BAB2065 (scFv)
scFv: GVQLVQSGAEVKKPGASVKVSCKASGYTFTKYTMHWVRQAPGQGPEWMGWINGGSGDTKYSRKFQGRVTITKDTSASAAYMELSSLGSEDTALYYCARATYDPLTGYSFDGFDIWGQGTMVTVSSGGGGSGGGGSGGGGSSELTQPASVSGSPGQSITISCTGTSSDVGGYNYVSWYQQHPGKAPKLMIYEGSKRPSGVSNRFSGSKSGNTASLTISGLQAEDEADYYCSSYTTRSTRVFGGGTKLTVLG

Kd [5]: 0.498 nM
koff [5]: 0.00058 s⁻¹
kon [5]: 1.43e+06 M⁻¹ s⁻¹
B6: I006D08 IgG1 (antibody, V domains shown)
VH: B5 VH with G77S, H108Y, A109G, L110M, S111D, P112V
VL: B5 VL with S88N

binding result [1]: binds
binding result (Bovine serum albumin): no binding
binding result (TNF-alpha): no binding
binding result [2]: binds
B7: I008D05 (scFv)
scFv: GVQLVQSGAEVKKPGSSVKISCKASGVTFNDYAFSWVRQAPGQGLEWVGGIIPKFGKAKYAQKFQGRLTISGDKSTSTAYMELRSLTSDDTAVYYCARATYDPLTGYSFDGFDIWGQGTMVTVSSGGGGSGGGGSGGGGSQSVLTQPASVSGSPGQSITISCTGTSSDVGGYNYVSWYQQHPGKAPKLMIYEGSKRPSGVSNRFSGSKSGNPASLTISGLQAEDEADYYCSSYTTRSTRVFGGGTKLTVLG
notes: also called 1008D05

Kd [6]: 5 nM
B9: I079F11 (scFv)
scFv: QVQLVQSGGGLVKPGGSLRLSCAASGFTFSSYSMNWVRQAPGKGLEWVAVVSSDGGNKYYADSVKGRFTISRDNSKNTVYLQMNSLRADDTAVYYCAKTGSGFDYWGRGTLVTVSSGGGGSGGGGSGGGGSDIQMTQSPSTLSASIGDRVTITCRASEGIYHWLAWYQQKPGKAPKLLIYKASSLASGAPSRFSGSGSGTDFTLTISSLQPDDFATYYCQQYSNYPLTFGGGTKLEIKR

binding result (APRIL, soluble form): binds
binding result [3]: binds
B10: BAB2016 (scFv)
scFv: EVQLVQSGGGLVQPGGSLRLSCAASGFTFSSYWMSWVRQAPGKGLEWVANIKQDGSGKYYVDSVKGRFTISRDNAKNSLYLQMNSLRAEDTAVYYCARDPRYDILTGYLYGMDVWGQGTMVTVSSGGGGSGGGGSGGGGSQSVLTQPASVSGSPGQSITISCTGTSSDVGGYNYVSWYQQHPGKAPKLMIYEGSKRPSGVSNRFSGSKSGNTASLTISGLQAEDEADYYCSSYTTRSTRVFGGGTKLTVLG

binding result (APRIL, soluble form): binds
binding result [3]: binds
B11: BAB2034 (scFv)
scFv: QVQLQQSGPGLVKPSQTLSLTCAISGDSVSSNSAAWNWIRQSPSRGLEWLGRTYYRSKWYNDYAVSVKSRITINPDTSKNQFSLQLNSVTPEDTAVYYCAREGAHYDILTGHNYYHYGMDVWGQGTMVTVSSGGGGSGGGGSGGGGSQSVLTQPPSASGSPGQSVTISCTGTSSDVGGYNYVSWYQQHPGKAPKFMIYDVSKRPSGVSNRFSGSKSGNTASLTISGVQAEDEADYYCSSYTSASTVIFGGGTKLTVLG

Kd [6]: 6 nM
B12: I082G02 (scFv)
scFv: KVQLVESGGGVVQPGRSLRLSCVTSGFTFSSYGMHWVRQAPGKGLEWVAGISYDGAKEYYGDPVKGRFTISRDNTKKTLNLQMNSLRAEDTAVYYCARDGYRTNDALDIWGQGTLATVSSGGGGSGGGGSGGGGSDIQMTQSPSTLSASIGDRVTITCRASEGIYHWLAWYQQKPGKAPKLLIYKASSLASGAPSRFSGSGSGTDFTLTISSLQPDDFATYYCQQYSNYPLTFGGGTKLEIKR
